Experimental data published in the DeepSol protein solubility set.

assay: soluble on expression in E. coli; label from the status in PepcDB or PDB records

Row | Sequence | soluble on expression in E. coli
1 | MSLRQVIPIPSPPAKYLLPEVTVLDYGKKCVVIDLDETLVHSSFKPISNADFIVPVEIDGTIHQVYVLKRPHVDEFLQRMGQLFECVLFTASLAKYADPVADLLDRWGVFRARLFRESCVFHRGNYVKDLSRLGRELSKVIIVDNSPASYIFHPENAVPVQSWFDDMTDTELLDLIPFFEGLSREDDEGHHHHHH | soluble
2 | MSLRSELPEGFFGPREWARLNAVADIIPGFPHTDFDTANGAEALAEADILLAAWGTPSLTRERLSRAPRLKMLAYAASSVRMVAPAEFWETSDILVTTAASAMAVPVAEFTYAAIIMCGKDVFRLRDEHRTERGTGVFGSRRGRSLPYLGNHARKVGIVGASRIGRLVMEMLARGTFEIAVYDPFLSAEEAASLGAKKAELDELLAWSDVVSLHAPILPETHHMIGARELALMADHAIFINTARGWLVDHDALLTEAISGRLRILIDTPEPEPLPTDSPFYDLPNVVLTPHIAGALGNELRALSDLAITEIERFVAGLAPLHPVHKQDMERMAEGHHHHHH | soluble
3 | MSLRSGVEMAQRFARYPGAVANAARLGAACAFDVRLIAPRLPDFPVPPGHTEMSYLRELAMRGAAEKYGPPHQRPDVYRQLDYELDVIEQLGFPGYFLVVWEIVEFCRSRGILCQGRGSAANSVVCYVLGITKADPIAFRLLFERFLSPERDGPPDIDVDIESGRREEVIQYVYSRYGRERAAQVATVITYRPRSAVRDMARALGYSPGQQDAWSKQLDRYGEIPRGSEADHDVPDDVVHLARQVLGFPRHLGIHSGGMVICDRPVAEVCPVEWARMPGRSVLQWDKDDCARIGVVKFDLLGLGMLSALRECFDLIETYHGVRLSLETIPPEDPAVYDMLCAADSVGVFQVESRAQMATLPRLQPRNFYDLVTEVAIIRPGPIQGGSVHPFIRRRRGREPVRYAHPLLRHSLERTYGVPLFQEQIMQMAIDVAGLTPAEADHLRQAMGAKREGHHHHHH | soluble
4 | MSLRTEEEMFQLIMDVAKQEEHIRAVGMVGSRTNVKAPKDSFQDFDIVYIVEPCAEFFETATWIAKFGQPLIMQRPKEMTLFPTEPKTRETFLMLFEDGQRIDLTLCPLAEKDNWHEGDSLAIILLDKDENLPPLPVASDKNYTVTVPDQQQFNDCCNEFWWVSTYVVKGLCRNELFYAVTHLYEYCQQELLRLLSWQAAWQEPEPISVGKQFKYLKNYVTPDTMDQLASLLDFSSKEACWNSLIKTQAFFDVVAQDFAKMAQFTYHLQEAKKVTEYTNSLRLKDLQGKEGHHHHHH | soluble
5 | MSLRTPYEEVRDFFHFVDNYVAEIDLLAEELAQELEIEGGETYGILAAHLRSLYGIHITRTEAAGGLIRHFDPAGKTLALSSYMAAPTRCFQLALQIAQLHAGATVDRVLAGAGFRNAEAAEICRIGLHNYFAAALILPYGQFHRAAQELRHDLELLAVRFGASLEQVAHRLSTLQRPGMKGVPIFFAKIDRAGNITKRHSATRLQFARFGAACPLWNIHQAFESSDRIVRQLAETPDGVRYLSIATQIEKAGAGFNTERPRYAIALGCEISHAQNFVYADTLDLGNAASFKPIGISCRVCERVDCVQRAVPPLKRKLHFDHLSRGALPYQIAEGHHHHHH | soluble
6 | MSLRTSYKIYCTYKNIHAWYDAIKCGIDAAVKELAEKGVTVDYEWYGPAQPDAVDQVNSIETAIGQGWDLIAVDVNQPELTGEAINNAVAKGIPVAVFGTSDVPNCDRAFFVGNTDPYGDGCALAKAVCEKMGGKGQIAILAGTIGALAHEERLRGFKDTIAKYPDIEIVDEQRDNDEVEKAISITESWLQAYPNLGGILCNNMSNPVGACQAVADAGKSGKIVIGGMDHDLRALNALKDGTLYVAQVQNCYDMGYKLIYNAIKTIDGEKVEESTAVGSTSVYAQDADKFINMLYGEANEGHHHHHH | soluble
7 | MSLRVIDSHTAGEPTRVVLDGGPDLGSGTLAERAARLEAEHLDFCASVMLEPRGHDAIIGALLVPPSDPACAAGVIYFNNLQNLGMCGHATIGLGVTLAHLGRIRPGRHRFETPVGVVEIDLIDANTVSVVNIESYRLAKDVTVEVEGVGPVTGDVAWGGNWFFMVKNSPIALTGANIRPLTDLTLKIRTALEKAGVTGKDGAWIDHIELFGPAEDPAAQSRNFVLCPGGAYDRSPCGTGCSAKMACLAADGALAPGQDYLQESVIGSTYKISYQPGPGGGVIPTITGQAFVTSDATLIFNPADPYRSGIRLEGHHHHHH | soluble
8 | MSLSAGETDERLRIATTTSLYDTKLLDTLESRFEEKYGIEVDVISGGTGFALEQGRRGDVDLLLVHDKAREYEFIAEGYGTERRCFAYNYFYIVGPADDPAGIKGTNASEAFRMIADAGEKNSNVRFVSRGDNSGTHAREKLLWKSAGIEPSGSWYLESGQGMGATLIMVDEKRAYTLTDMSTYMAFAGNLSLVPLVTESEELLNVYAAIPVSASEHLDDAERFVEFLLSQEGQEIIAGYGKDIYGRALFYPAAGHCTEIGCNATECPGEMVSAFGEGHHHHHH | soluble
9 | MSLSAHEIRELFLSFFEKKGHTRVKSAPLVPENDPTLLFVNAGMVPFKNVFLGLEKRPYKRATSCQKCLRVSGKHNDLEQVGYTSRHHTFFEMLGNFSFGDYFKKEAIEYAWEFVTEVLKLPKEKLYVSVYKDDEEAYRIWNEHIGIPSERIWRLGEEDNFWQMGDVGPCGPSSEIYVDRGEEYEGDERYLEIWNLVFMQYNRDENGVLTPLPHPNIDTGMGLERIASVLQGKNSNFEIDIIFPLIQFGEEVSGKKYGEKFETDVALRVIADHLRAITFAISDGVIPSNEGRGYVIRRILRRAMRFGYKLGIENPFLYKGVDLVVDIMKEPYPELELSREFVKGIVKGEEKRFIKTLKAGMEYIQEVIQKALEEGRKTLSGKEVFTAYDTYGFPVDLIDEIAREKGLGIDLEGFQCELEEQRERARKHFKVEAKKVKPVYSHLKELGKTSAFVGAAALEHHHHHH | soluble
10 | MSLSAHPVPHAPAAPVCLAPRPAVPPTAVTVPPGAWDCHAHVLGPADLYPMQAERSYTPPDSSAAQYAALLDTLGLRRGVLVQPSVYGTDNRLLAQAVARPEWRGIAVLDPAADTRQVAALHAAGVRGFRLNLLFPGGPGLDALERSAALVAPFGWHAQLLVDVRILPGIEHRLARLPVPVVFDHLGHFPYELGTDWPGFHALLRRVAAGRTYVKLSGSYRLSARASHIADVAPIAQALVREAPQRLVWGSDWPHVGRFQDMPATHALLDALALWCPDPAARRAILVDTPTQLYSEGHHHHHH | not soluble
11 | MSLSAMQWERLLDPTRLNDKHGGSREEIGRSPFHKDHDRIVFAGSFRRLGRKTQVHPLTDNDHIHTRLTHSLEVGCVGRSLGMIVGEQLRERLPAWITPADLGVIVQAACLGHDIGNPPFGHAGEYAIRDWFKRAEADGSGLLADLAPAEREDLLTYEGNAQGFRIVTQIEYNQFNGGMRLTAATLGTMLKYPWTVERASRAGKFGCYQSERELLGEVAERLGLLPRGETAWCRHPLAYLVEAADDICYALLDLEDGLEMGILRFDEVAEILIQIAGGAPEGYDGMRARGVSQRRRIATLRGAAMERAVNDVAAVFVAHESALLGGTLSEDLLELCHPDLGWGVGTAKRIARERIFQNERKAKLEIGAYTTLGILLEAFIGAAHELHYSGQSSFKHQRVLALIGENTPKSSWSLYASYRRMLDFIGGMTDHYAVDLAQEMGGRLEGHHHHHH | soluble
12 | MSLSDDTIDRFFGYLNWLFNPFHGLKTTEVYDLIGTSSLTENALYLNLGYWRKADTIDEASEALALLVAKRGGMGPGDIVLDCGYGFGDQDILWARQLKPEKIIGLNITSSQVERARKRVADAGLEQSIDLREGSATAMPIENESIDLVVSVESAFHYRTREAFFREAFRVLRPGGRLVTADIVPTENSGNPFRRMEQWFSWNLVAGKFNIPQENYYLIPSYQNKLTKAGFVQIDIKSIRDDVYEPLHAYLAKNRTFFAKMHPLARIMAQLTLNRSAESVYAGLDYILSYAEKEGHHHHHH | soluble
13 | MSLSDSNDDRPFRPFQSQYRWPGVDLLAYKEEGSAPFRSVTRQVLFSGNGLTGELRYFEVGPGGHSTLERHQHAHGVMILKGRGHAMVGRAVSAVAPYDLVTIPGWSWHQFRAPADEALGFLCMVNAERDKPQLPTEGHHHHHH | not soluble
14 | MSLSDVSSNYWAAPFIQQLSQRGVIAGFPDGSFRPEEAVTRAQFAAMVNKAFQKSQQRSPINFADVPSNYWASSAIQQAYTIGFLSGYPGNRFEPNQAIPRQQVLVSLANGLEYSPIGNTESTLQYFNDASNIASYARSPMAAATEKQIVVNYPNVKFLNPTATATRAQVAAFIYQALVSSNQASAINSEGHHHHHH | soluble
15 | MSLSDYKVGEELSDKEGVEYFKELSKRPVQEWPNKNLSINDVPKGKQGDLIRYGIELLSKTESTLGPYSKLKKTSNEVNCISCHMDNDGNGLPGTKKYVIPFLNILNNYPRLDIETMKIISVEDRIRGMGGTDSHRFPNDSKEMKAILAYFKWLKEAYGIKDGVKLEGDFFAKMNFPNRPADPVRGKKLFEENCVACHGERGLGVKNDNYEQGSGHLYPSLLIYPDGGHMAMIPFLARFLKSAMPFGASADNPILSDEDALDIAAYVNTGFVRMPITTTENRAGLDTAYSKSPSLKPEYFASPQQNLDPKEYIKVKYGPWKNPNHFPGEGHHHHHH | soluble
16 | MSLSEDENALSIFETNCHSGSPKKQSSSAAIHKPYLHFTMSPYHQPTSYRPRLLLSGERGSGQTSHLAPALLHTLERFSVHRLDLPALYSVSAKTPEESCAQIFREARRTVPSIVYMPHIGDWWEAVSETVRATFLTLLQDIPSFSPIFLLSTSETMYSELPEEVKCIFRIQYEEVLYIQRPIEEDRRKFFQELILNQASMAPPRRKHAALCAMEVLPLALPSPPRQLSESEKSRMEDQEENTLRELRLFLRDVTKRLATDKRFNIFSKPVDIEEVSDYLEVIKEPMDLSTVITKIDKHNYLTAKDFLKDIDLICSNALEYNPDKDPGDKIIRHRACTLKDTAHAIIAAELDPEFNKLCEEIKEARIEGHHHHHH | not soluble
17 | MSLSEEKWAIITGADGGMGTEITRAVAEAGYHIIMACYRPSKAEPIRQRLVNETGNANMEVMAVDLSSMASTASFADRIVERHLPVSLLMNNAGTMETGLHITDDGFERTVSVNYLGPYLLTRKLLPALTCGARIVNMVSCTYAIGHLDFPDFFRQGRKGSFWRIPVYSNTKLALMLFTIELSERLREKGITVNAADPGIVSTDIITMHQWFDPLTDIFFRPFIRTPKKGASTAVGLLLDEAVAGVSGQLYASSHRKQLSEKYLCHVQQKQLWQETEQALERWLKEGHHHHHH | soluble
18 | MSLSEYQDLSQQIELIATAEESEQTHLLGEMVENGLDEGSIALILEAFPVEQRVRLWRSLPLEMHIDVLTEMRAEVRISVINALSEIELKLTLAKLDNLSLIEWEDSLPDDIISEALSLINRDELELYDQANEFADDEIGHWADRKVYTLPFSISVRRAKVLLDKYHYDSPQYIYLINKAKKFRGLVSFSDVLQAEETTQLKNLRMEELVTLNAKQTLSDAVDALEHTTLPIVPVLSDDETLIGEIDWHFALSVQREMYEARLMAGTGMDEGDDLFAPVIKSEGHHHHHH | soluble
19 | MSLSGSITVPNYSDTNRVPGLYFALDNSKANTASVTRRVLILGQTIAGSGAPNVATLSAGYSDAVAKYGAASQCARMVSAYRAIDAQGEVWVLPLADDTSAQAATGKVTVSGTATSAGTLPLYVGDQLISVAVDTGDTAATVAANIATATAAVSGLPAGASAAEGVVTFTALNKGQSGNDILLGVALLGTAGGQAVPDGLTIALTQFSGGTADPTTLATVLALQGERVYDLIIHPYTDSGSLTALKIWLNDTAGRWSPMLQLYGHAITAYRGTYGAATSLGLAQNDQHATIMPIGDSPSDPLTWAAQIGARTAMSMRSNPALPITAVSLTVMPPTDVGRYSSEQRNSLLYDGLSTFTVDDSGTVNIERLVTTYQTNASGLPDNSYLDIETMLTAEICMQDMRSYLAGQYGGCILVADGTKISAGAKATTAKLIGKACASRYRWQTTQLWVQNADNFAANIVAENAGNGVVKLLMPYDFANQLRIIAGSVQFVKSEGHHHHHH | soluble
